B1: Retinoblastoma-associated protein (Homo sapiens), P06400 (parent)
chain: MPPKTPRKTAATAAAAAAEPPAPPPPPPPEEDPEQDSGPEDLPLVRLEFEETEEPDFTALCQKLKIPDHVRERAWLTWEKVSSVDGVLGGYIQKKKELWGICIFIAAVDLDEMSFTFTELQKNIEISVHKFFNLLKEIDTSTKVDNAMSRLLKKYDVLFALFSKLERTCELIYLTQPSSSISTEINSALVLKVSWITFLLAKGEVLQMEDDLVISFQLMLCVLDYFIKLSPPMLLKEPYKTAVIPINGSPRTPRRGQNRSARIAKQLENDTRIIEVLCKEHECNIDEVKNVYFKNFIPFMNSLGLVTSNGLPEVENLSKRYEEIYLKNKDLDARLFLDHDKTLQTDSIDSFETQRTPRKSNLDEEVNVIPPHTPVRTVMNTIQQLMMILNSASDQPSENLISYFNNCTVNPKESILKRVKDIGYIFKEKFAKAVGQGCVEIGSQRYKLGVRLYYRVMESMLKSEEERLSIQNFSKLLNDNIFHMSLLACALEVVMATYSRSTSQNLDSGTDLSFPWILNVLNLKAFDFYKVIESFIKAEGNLTREMIKHLERCEHRIMESLAWLSDSPLFDLIKQSKDREGPTDHLESACPLNLPLQNNHTAADMYLSPVRSPKKKGSTTRVNSTANAETQATSAFQTQKPLKSTSLSLFYKKVYRLAYLRLNTLCERLLSEHPELEHIIWTLFQHTLQNEYELMRDRHLDQIMMCSMYGICKVKNIDLKFKIIVTAYKDLPHAVQETFKRVLIKEEEYDSIIVFYNSVFMQRLKTNILQYASTRPPTLSPIPHIPRSPYKFPSSPLRIPGGNIYISPLKSPYKISEGLPTPTKMTPRSRILVSIGESFGTSEKFQKINQMVCNSDRVLKRSAEGSNPPKPLKKLRFDIEGSDEADGSKHLPGESKFQQKLAEMTSTRTRMQKQKMNDSMDTSNKEEK
partner: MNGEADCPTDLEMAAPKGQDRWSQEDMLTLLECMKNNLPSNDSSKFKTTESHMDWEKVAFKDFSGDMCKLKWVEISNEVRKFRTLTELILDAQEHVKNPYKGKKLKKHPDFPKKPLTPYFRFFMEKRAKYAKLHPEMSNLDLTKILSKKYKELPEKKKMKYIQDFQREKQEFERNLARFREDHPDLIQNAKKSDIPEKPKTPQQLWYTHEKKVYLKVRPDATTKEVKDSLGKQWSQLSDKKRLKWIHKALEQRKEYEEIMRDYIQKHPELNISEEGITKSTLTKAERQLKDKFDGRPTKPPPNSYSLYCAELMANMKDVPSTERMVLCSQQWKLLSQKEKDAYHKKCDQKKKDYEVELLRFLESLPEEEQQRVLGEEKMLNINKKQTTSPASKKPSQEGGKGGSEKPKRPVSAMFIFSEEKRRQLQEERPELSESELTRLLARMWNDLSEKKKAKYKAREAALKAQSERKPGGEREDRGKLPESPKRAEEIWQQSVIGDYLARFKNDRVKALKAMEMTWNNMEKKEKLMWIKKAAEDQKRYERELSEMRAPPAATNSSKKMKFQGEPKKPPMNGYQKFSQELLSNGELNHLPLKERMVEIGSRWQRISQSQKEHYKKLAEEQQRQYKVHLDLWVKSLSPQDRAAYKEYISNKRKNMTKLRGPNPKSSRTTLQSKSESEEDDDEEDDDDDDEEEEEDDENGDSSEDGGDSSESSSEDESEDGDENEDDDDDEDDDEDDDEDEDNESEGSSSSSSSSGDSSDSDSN

Variants of: B1
Conditions: with ubf1_rat Ubtf

Row | Variant | effect of a mutation on the interaction
1 | C706F | disrupting interaction

Source: IntAct's records for PubMed 7877691
